# Measured values taken from patent US10471162B2, “Collagen targeted imaging probes” (priority 2014, dated 2019).
# Assays:
# in vivo = test: in vivo; parameters: species or system mouse; conditions: male, C57Bl/6, mouse, iv, total radioactivity, Biodistribution % ID/g
# Experimental: (§1) Adult male C57Bl/6 mice were administered a single intratracheal dose of low dose bleomycin at 0.1 U/kg (low dose), in a total volume of 50 μl sterile saline. FTY720 was administered intraperitoneally to the mice at 1 mg/kg three times a week. Animals were placed in a small-animal PET/SPECT/CT scanner (Triumph; TriFoil Imaging), equipped with inhalation anesthesia and heating pad. Each animal was anesthetized with isoflurane (4% for induction, 2-2.5% for maintenance in medical air) and body temperature was kept at 37-38° C. using a heating pad. The femoral vein was cannulated for intravenous delivery of the PET agent. Each mouse was injected with approximately 0.1 mL and 20-50 μCi of ^64Cu-CBP(n), 0.1 mL and 20-50 μCi of ^68Ga-CBP(n) and 0.1 mL and 10-20 μCi of Al^18F-CBP(n) in a 18 mM solution of sucrose in water, followed by saline flush. […] The lungs, blood, urine, heart, liver, left rectus femoris muscle, spleen, small intestine, kidneys, left femur bone were collected from all animals. The tissues were weighed, and radioactivity in each tissue was measured on a gamma counter (CobraII Auto gamma; Packard). The radioactivity in the lung was reported as percent injected dose per gram corrected with the average sham weight, which was calculated by dividing the counts of ^64Cu per average sham tissue weight in gram by the total of counts of the injected dose. The radioactivity in every other tissue was reported as percent injected dose per gram (% ID/g), which was calculated by dividing the counts of ^64Cu per gram of tissue by the total of counts of the injected dose. A p-value of less than 0.05 was considered significant. Uncertainties are expressed as the standard error of the mean.
# [1] = tested on: pulmonary fibrosis, C57Bl/6 mice (low dose bleomycin, FTY720); test: in vivo; parameters: species or system mouse
# Experimental: as §1
# [2] = tested on: pulmonary fibrosis, low dose bleomycin, vascular leak model; conditions: male, C57Bl/6, mouse, in vivo, iv
# Experimental: Adult male C57Bl/6 mice were administered a single intratracheal dose of low dose bleomycin at 0.1 U/kg (low dose), in a total volume of 50 μl sterile saline. FTY720 was administered intraperitoneally to the mice at 1 mg/kg three times a week. To effect treatment in the low dose bleomycin, vascular leak model, the therapeutic murine antibody 3G9 (alpha-v-beta6 blocking antibody) and 1E6 (matched isotype control antibody) were used. Antibodies were injected into mice intraperitoneally three times week at a concentration of 1 mg/kg. All administrations of FTY720 and antibodies were initiated on day 0, ˜30 minutes before bleomycin challenge and continued throughout the duration of the experiments. Animals were placed in a small-animal PET/SPECT/CT scanner (Triumph; TriFoil Imaging), equipped with inhalation anesthesia and heating pad. […] Instrument calibration was performed with phantoms containing small known amounts of radioactivity. […] Reconstructed PET/CT data were quantitatively evaluated using AMIDE software package (Loening and Gambhir, 2003). […] The radioactivity concentration within organs was obtained from mean pixel values within the VOI volume and converted to counts per milliliter per minute and then divided by the injected dose (ID) to obtain an imaging VOI-derived percentage of the injected radioactive dose per cubic centimeter of tissue (% ID/cc). […]
# [3] = male, C57Bl/6, mouse, iv, 2.5 h
smiles,measurement,setting,value
"CC(C)C[C@H](NC(=O)[C@@H]1CSSC[C@H](NC(=O)[C@H](Cc2c[nH]cn2)NC(=O)[C@H](Cc2c[nH]c3ccccc23)NC(=O)[C@H](CCCCNC(=O)CNC(=O)CCC(C(=O)O)N2CCN(CC(=O)O)CCN(CC(=O)O)CC2)NC(=O)CNC(=O)CCC(C(=O)O)N2CCN(CC(=O)O)CCN(CC(=O)O)CC2)C(=O)N[C@@H]([C@@H](C)O)C(=O)N[C@@H]([C@@H](C)O)C(=O)N[C@@H](CCCCNC(=O)CCC(C(=O)O)N2CCN(CC(=O)O)CCN(CC(=O)O)CC2)C(=O)N[C@@H](Cc2ccccc2)C(=O)N2CCC[C@H]2C(=O)N[C@@H](Cc2c[nH]cn2)C(=O)N[C@@H](Cc2c[nH]cn2)C(=O)N[C@@H](Cc2ccc(O)cc2)C(=O)N1)C(=O)N[C@@H](Cc1ccc(O)cc1)C(=O)N[C@@H](Cc1ccc(-c2ccccc2)cc1)C(N)=O (single isomer, unassigned) [CBP8]",tissue uptake at 2.5 h,in vivo; blood,0.347 ± 0.017 %ID/g
same,tissue uptake at 2.5 h,in vivo; heart,0.293 ± 0.024 %ID/g
same,tissue uptake at 2.5 h,in vivo; kidney,42.7 ± 1.42 %ID/g
same,tissue uptake at 2.5 h,in vivo; liver,1.44 ± 0.108 %ID/g
same,tissue uptake at 2.5 h,in vivo; small intest.,0.477 ± 0.052 %ID/g
same,tissue uptake at 2.5 h,in vivo; spleen,0.47 ± 0.045 %ID/g
same,"Biodistribution % ID/g, blood",[1]; [3],0.523 ± 0.062 % ID/g
same,"Biodistribution % ID/g, heart",[1]; [3],0.340 ± 0.038 % ID/g
same,"Biodistribution % ID/g, kidney",[1]; [3],50.36 ± 2.756 % ID/g
same,"Biodistribution % ID/g, liver",[1]; [3],1.998 ± 0.117 % ID/g
same,"Biodistribution % ID/g, small intest.",[1]; [3],0.690 ± 0.064 % ID/g
same,"Biodistribution % ID/g, spleen",[1]; [3],0.925 ± 0.126 % ID/g
same,"organ uptake between groups, except lungs, in words",[1]; mouse,not significantly different
same,mean lung PET activity,[2],2.07 ± 0.53 % ID/cc
